In patent US20260104418A1 (published 2026):

Columns and labels:
[1] = target: T1, human Claudin-18.2 (CLDN18.2) (human); test: FACS, 1.5 ug antibody, HEK293T-CLDN18.2 C12 clone
T1 construct: On cells: endogenous on HUPT4 and SNU601; also called human CLDN18.2
Protocol: (§1) FAGS assays were carried out to determine relative antigen binding strengths of the humanized antibodies (at either 1.5 ag or 0.3 rag) for binding to CLDN18.2 as expressed by the indicated cancer cell lines.

[2] = target: T1, human Claudin-18.2 (CLDN18.2); test: FACS, 1.5 ug antibody, HUPT4 cells (endogenous CLDN18.2)
Protocol: as §1

[3] = target: T1, human Claudin-18.2 (CLDN18.2); test: FACS titration of AF647-labelled IgG on HEK293T cells overexpressing human CLDN18.2 (clone C12)
Description: (§2) CLDN18.2-expressing cells were used in FACS assays to determine the CLDN18.2 antibody's ability to bind to CLDN18.2 on the surface of cells and to cross-react with other CLDN family members. HEK293 T cells engineered to express human CLDN18.2 fused to GFP, mouse CLDN18.2 fused to GFP, CLDN18.1-GFP, or GFP alone (without CLDN18.2) were used as artificial models of CLDN18.2 expression. HUPT4, SNU601, and PATU8988S cells were used as endogenous models of CLDN18.2 expression.
(§3) For each type of cell tested and for each mAb, cells were detached from the surface of the culture flasks by versene (instead of trypsin) in order to protect the cell surface proteins. The detached cells were then incubated with Alexa Fluor®-labeled CLDN18.2 mAbs for 30 min in the dark on ice at a pre-determined concentration. […] After washing, the cells were read by a BD Accuri™ Flow Cytometer C6 to detect antibody-antigen protein binding in channel FL4H. Each antibody was tested at varied concentrations to establish a dose-fluorescence curve.

[4] = target: T1, human Claudin-18.2 (CLDN18.2); test: FACS titration of AF647-labelled IgG on HUPT4 cells (endogenous CLDN18.2)
Description: as §2, §3

[5] = target: T1, human Claudin-18.2 (CLDN18.2); test: FACS titration of AF647-labelled IgG on SNU601 cells (endogenous CLDN18.2)
Description: as §2, §3

Binder | FACS signal (relative antigen binding strength) [1] | FACS signal (relative antigen binding strength) [2] | EC50 [3] | EC50 [4] | EC50 [5]
Reference antibody 1 (Benchmark 1-175D10) (antibody, V domains shown) VH: QVQLQQPGAELVRPGASVKLSCKASGYTFTSYWINWVKQRPGQGLEWIGNIYPSDSYTNYNQKFKDKATLTVDKSSSTAYMQLSSPTSEDSAVYYCTRSWRGNSFDYWGQGTTLTVSS VL: DIVMTQSPSSLTVTAGEKVTMSCKSSQSLLNSGNQKNYLTWYQQKPGQPPKLLIYWASTRESGVPDRFTGSGSGTDFTLTISSVQAEDLAVYYCQNDYSYPFTFGSGTKLEIK | 80600 | 2450 | 1.09 µM |  | 
Ab 369 (antibody, V domains shown, Full-length IgG from ExpiCHO) VH: DVKLVESGGGLVKPGGSLKLSCAASGFTFTSYTMSWVRQTPEKRLEWVATIIIGGSYTYYPDSVKGRFTISRDNAKNTLYLQMSSLKSEDTAMYYCTRLVKGNAMDYWGQGTSVTVSS VL: DILMTQSPSSLTVTAGEKVTMTCKSSQSLLNSGNQKNYLTWYQQKPGQPPKLLIYWASSRESGVPDRFTGSGSGTDFTLTISSVQAEDLAVYYCQNDYSYPFTFGAGTKLELK |  |  | 0.04 µM | 0.265 µM | 0.276 µM
Ab 307 (antibody, V domains shown, Full-length IgG from ExpiCHO) VH: DVKLVESGGGLVKPGGSLKLSCAASGFTFSSYTMSWVRQTPEKRLEWVATIIIGGSYTYYPDSVKGRFTISRDNAKNTLYLQMSSLKSEDTAMYYCTRLVKGNAMDYWGQGTSVAVSS VL: DIVMTQSPSSLTVTTGEKVTMSCKSSQSLLNSGNQKNYLSWYQQIPGQPPKLLFYWASTRESGVPDRFTGSGSGTDFTLTISNVQAEDLAVYYCQNDYSYPFTFGAGTKLELR |  |  | 0.0391 µM | 0.336 µM | 0.221 µM
Ab 376 (antibody, V domains shown, Full-length IgG from ExpiCHO) VH: DVKLVESGGGLVKPGGSLKLSCAASGFTFSSYTMSWVRQTPEKRLYWVATISSGVSYTYYPDSVKGRFTISRDNAKNTLYLQMSSLKSEDTAMYYCTRLTKGNAMDYWGQGTSVTVSS VL: DIVMTQSPSSLTVTAGEKVTMSCKSSQSLLNSGNQKNYLTWYQQKPGQPPKLLIYWASTRESGVPDRFTGSGSGTGFTLTISSVQAEDLAVYYCQNDYSYPFTFGAGTKLELK | 137000 | 31300 | 0.0521 µM |  | 
Ab 358 (antibody, V domains shown, Full-length IgG from ExpiCHO) VH: VVQLVESGGDFVQPGGSRKLSCAVSGFTFSSFGMHWVRQAPEKGLEWVAYISSGTTNIYYADTVKGRFTVSRDNPKNSLFLHMTSLRSEDTAMYYCVRSGYYGNSLDYWGQGTPLTVSS VL: DIVMTQSPSSLTVTAGEKVTMSCKSSQSLFNSGNQRNYLTWYQQKPGQPPKLLIYWASTRESGVPDRFTGSGSGTGFTLTISSVQAEDLAFYYCQNVYIYPLTFGLGTKLELR |  |  | 0.0545 µM | 0.111 µM | 0.414 µM
Ab 384 (antibody, V domains shown, Full-length IgG from ExpiCHO) VH: QVQLQQSGAELARPGASVKLSCKASDYTFTSYVISWVKQRTGQGLEWIGEIYPRNGNTYYNEKFKGKATLTADKSSSTAYMELRSLTSEDSAVYFCARSYYGNSFAYWGQGTLVTVSA VL: DIVMTQSPSSLTVTAGEKVTMSCKSSQSLLNSGNQKNYLTWYQQRPGQPPKLLIYWASTRESGVPDRFTGSGSGTDFTLTISSVQAEDLAVYCCQNNYYYPFTFGGGTKLGIK |  |  | 0.595 µM |  | 
Ab 360 (antibody, V domains shown, Full-length IgG from ExpiCHO; also called 360-Chim) VH: VVQLQQSGPELVKPGASVKMSCKASGYTFTSYLMHWVRQKPGLGLDWIGYINPYNDGTNYNAKFIDKATLTSDKTSSTAYMELSSLTSEDSAIYYCTRGDYWGQGTSVTVSS VL: DIVMTQSPSSLAVTAGEQVTMSCKSSQSLLNSGNQKNYLTWYQQKPGQPPKLLIYWASIRQSGVPDRFTGSGSGTDFTLTISSVQAEDLAVYYCLNDYGFPLTFGAGTKLELK |  |  | 0.0397 µM | 0.693 µM | 0.119 µM
Ab 432 (antibody, V domains shown, Full-length IgG from ExpiCHO; also called 432-Chim) VH: QIQLQQSGAELARPRASVKLSCKASGYTFTSDVISWVKQRPGQGLEWIGESYLRNGNTYYNENFKGKATLTADKSSSTAYMELRSLTSEDSAVYFCARSYYGNSFAYWGQGTLVTVSA VL: DIVMTQSPSSLTVTAREKVTMNCKSTQSLLNSGNQKNYLTWYQQKPGQPPKLLIYWASTRESGVPDRFTGSGSGTDFTLTISSVQAEDLAVYYCQNAYYYPFTFGGGTKLEIK |  |  | 0.0423 µM | 0.348 µM | 0.245 µM
Ab 400 (antibody, V domains shown, Full-length IgG from ExpiCHO) VH: QVQLKESGPGLVAPSQSLSITCTVSGFSLNSYGVSWVRQPPGKGLEWLGVIWGDGSTNYHSALKSRLNINKDKSKSQVFLKLNSLQTDDTATYYCARPTRGNAMDYWGQGTSVTVSS VL: DVVMTQSPSSLTVTAGEKVTMNCKSSQSLLNSGNQRSYLTWYQQKPGQPPKLLIYWASTRESGAPDRFTGSGSGADFTLTISSVQAEDLAIYYCQNNYNYPFTFGSGTKLEIK |  |  | 0.0312 µM | 0.0978 µM | 0.27 µM
Reference antibody 2 (Benchmark 2-163E12) (antibody, V domains shown) VH: QVQLQQSGAELARPGASVKLSCKASGYTFTDYYINWVKQRTGQGLEWIGEIYPGSGNTYYNEKFKGKATLTADKSSSTAYMQLSSLTSEDSAVYFCARSYGAFDYWGQGTTLTVSS VL: DIVMTQSPSSLTVTAGEKVTMSCKSSQSLLNSGNQKNYLTWYQQKPGQPPKLLIYWASTRESGVPDRFTGSGSGTDFTLTISSVQAEDLAVYYCQNDYSYPLTFGAGTKLELK | 125000 | 11100 | 1.74 µM |  | 
Ab 331 (antibody, V domains shown, Full-length IgG from ExpiCHO) VH: EVQLQQSGPELVKPGASVRMSCKASGYTFTSYIMHWVKQKPGQGPEWMGYINPYNDGTNYNEKFKDKATLTSDKSSSTAYMDLSSLTSEDSAVYYCTRGDYWGQGTSVTVSS VL: DIVMTQSPSSLTVTAGEKVTMSCKSSQSLLNSGNQKNYLTWYQQKPGQPPKLLFYWASTKKSGVPDRFTGSGSRTDFTLTISSVQAEDLAVYYCLNDYSFPLTFGAGTKLELK |  |  | 0.0231 µM | 0.606 µM | 0.106 µM
Ab 347 (antibody, V domains shown, Full-length IgG from ExpiCHO) VH: EVQLQQSGPELVKPGASVKMSCKASGYTFTSYLIHWVKQKPGQGLEWIGYINPYNDATYYNEKFKAKATLTSDKSSSTAYMELSSLTSEDTAIYYCTRGDYWSQGTSVTVSS VL: DIVMTQSPSSLTVTAGEKVTMSCKSSQSLLNSGNQKNYLTWYQQKPGQPPKLLIYWASTRQSGVPDRFTGSGSGTDFTLTISSVQAEDLTVYYCLNDYSFPLTFGAGTKLELK |  |  | 0.0704 µM | 0.294 µM | 0.276 µM
Ab 301 (antibody, V domains shown, Full-length IgG from ExpiCHO) VH: VVQLQQSGPELVKPGASVKMSCKASGYTFTSFLIHWVRQKPGLGLEWIGYINPYDYGINYNVKFMDKVTLTSDKTSSTAYMELSSLTSADSAIYYCTRGDYWGQGTSVIVSS VL: DIVMTQSPSSLAVTTGEQVTMNCKSSQSLLNSGNQKNYLTWYQQKTGQSPKLLIYWASTRQSGVPDRFTGSGSGTDFTLTISSVQAEDLAVYYCLNDYGFPLTFGAGTKLELK |  |  | 0.0221 µM | 0.143 µM | 0.256 µM
Ab 392 (antibody, V domains shown, Full-length IgG from ExpiCHO) VH: EVQLQQSGPELVKPGASVKMSCKASGFTFTSYVMHWVKQKSGQGLEWIGYINPYNDDIKYNAKFEDKATLTSDRSSSTAYMELSSLTSDDSAVYFCTRGDYWGQGTTLTVSS VL: DIVMTQSPSSLTVTTGEKVTMDCKSSQSLLNSGNQKNYLTWYQQKSGQPPKLLIYWASIRKSGVPDRFTGSGSGTDFTLTISSVQAEDLAVYYCLNDYSFPLTFGAGTKLELK |  |  | 0.446 µM |  | 
Ab 416 (antibody, V domains shown, Full-length IgG from ExpiCHO) VH: EFQLQQSGPELVKPGASVKISCKASVYSFTGYNMNWVKQSNGKSLEWIGVINPNYGNTNYNQRFKGKATLTVDQSSSTAYMQLNSLTSEDSAVYYCARSEDYYNIRGASWGQGTLVTVSA VL: QIVLTQSPAIMSASPGQKVTITCSASSTINYMHWYQQKLGSSPKLWIYDTSKLAPGVPARFSGSGSGTSYSLTISSMEAEDAASYFCHQWSSYPPTFGSGTKLELK |  |  | 0.597 µM |  | 
Ab 409 (antibody, V domains shown, Full-length IgG from ExpiCHO; 38 is used) VH: QVQLQQSGAELARPGASVKLSCKASGYTFTSYGISWVKQRTGQGLEWIGEISPRSGNTYYNEKFKGKATLTADKSSSTAYMELRSLTSEDSAVYFCATGVITTVIPTDWYFDVWGTGTTVTVSS VL: DIQMTQTTSSLSASLGDRVTISCRASQDISNYLNWYQQKPDGTVKLLIYYTSRLHSGVPSRFSGSGSGTDYSLTISNLEPEDIATYYCQHYSKLPPTFGSGTKLEIK |  |  | 0.605 µM |  | 
